Data published in patent US20050203012A1.
Each block holds one substance with its values, some of them ahead of it.

Experiments:
[1] = target: human PTH-1 receptor (human) (UniProt Q03431); assay: cell-based or functional assay
[2] = target: human PTH-1 receptor (human) (UniProt Q03431); assay: radioligand binding on HKRK B7 cells, no competitor, 2-8° C. for 6 hr
[3] = target: human PTH-1 receptor (human) (UniProt Q03431); assay: competition with ^125I-[Nle^8,21, Tyr^34]rat PTH-(1-34) on HKRK B7 cells

human PTH-1 receptor (human), sequence (Q03431 27-593): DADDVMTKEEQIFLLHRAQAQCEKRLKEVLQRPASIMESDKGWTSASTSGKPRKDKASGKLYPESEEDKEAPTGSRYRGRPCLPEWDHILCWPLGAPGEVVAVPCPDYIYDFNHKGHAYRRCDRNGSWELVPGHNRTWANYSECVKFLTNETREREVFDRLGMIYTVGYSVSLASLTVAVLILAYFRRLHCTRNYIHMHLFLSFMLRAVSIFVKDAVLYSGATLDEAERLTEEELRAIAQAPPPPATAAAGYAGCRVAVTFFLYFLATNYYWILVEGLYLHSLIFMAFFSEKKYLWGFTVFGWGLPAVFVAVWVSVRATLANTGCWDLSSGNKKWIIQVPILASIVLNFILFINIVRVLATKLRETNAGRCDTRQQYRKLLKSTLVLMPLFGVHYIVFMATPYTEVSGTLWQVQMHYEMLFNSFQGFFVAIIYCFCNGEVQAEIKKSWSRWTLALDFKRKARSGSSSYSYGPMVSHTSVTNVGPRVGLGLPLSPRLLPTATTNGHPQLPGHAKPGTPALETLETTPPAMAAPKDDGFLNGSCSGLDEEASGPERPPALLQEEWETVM

Substance: desamino-[Gly^1]hPTH-(1-34) (from UniProt P01270 32-65) (peptide)
PLC Activity (% Basal) at 1000 nM [1]: 108 % Basal

Substance: desamino-hPTHrP(1-36) (from UniProt P12272 37-72) (peptide)
PLC activation at 1000 nM peptide (percent of basal) [1]: 101

Substance: hPTH-(1-34) (from UniProt P01270 32-65) (peptide)
Cyclic AMP accumulation (% Maximum) at 0.01 nM [1]: 1.7 % Maximum
Cyclic AMP accumulation (% Maximum) at 0.1 nM [1]: 14 % Maximum
Cyclic AMP accumulation (% Maximum) at 1 nM [1]: 45 % Maximum
Cyclic AMP accumulation (% Maximum) at 10 nM [1]: 93 % Maximum
Cyclic AMP accumulation (% Maximum) at 100 nM [1]: 96 % Maximum
Cyclic AMP accumulation (% Maximum) at 1000 nM [1]: 100 % Maximum
EC50 of PLC activation [1]: 30 nM
IP3 Formation (% Maximum) at 1000 nM [1]: 87 % Maximum
IP3 Formation (% Maximum) at 10000 nM [1]: 100 % Maximum
IP3 formation at maximal concentrations of hPTH-(1-34) [1]: 1910 cpm/well
PLC Activity (% Basal) at 1000 nM [1]: 854 % Basal
cAMP accumulation at maximal concentrations of hPTH-(1-34) (pmoles/well/15 min) [1]: 207
cell-associated radioactivity (binding) in the presence of maximal concentrations of hPTH-(1-34) [3]: 956 cpm/well

Substance: hPTH-(2-34) (from UniProt P01270 33-65) (peptide)
PLC Activity (% Basal) at 1000 nM [1]: 88 % Basal

Substance: hPTHrP(1-36) (from UniProt P12272 37-72) (peptide)
PLC activation at 1000 nM peptide (percent of basal) [1]: 178

The remaining lines, values ahead:

PLC activity at 1000 nM peptide (percent of basal) [1]: 105
Substance: [Tyr^0]hPTH-(1-34) (from UniProt P01270 32-65) (peptide)

cell-associated radioactivity (binding), basal [2]: 25500 cpm/well
Substance: ^125I-[Nle^8,21, Tyr^34]rat PTH-(1-34) (from UniProt P04089 32-65) (peptide)

PLC Activity (% Basal) at 1000 nM [1]: 106 % Basal
Substance: desamino-[Ala^1]hPTH-(1-34) (from UniProt P01270 32-65) (peptide)
